Where two headings read alike, the source gives them in different places.
What was measured:
Assay in all cases: enzyme inhibition kinetics
[1] = target: factor XIa catalytic domain R171A (human) (UniProt P03951)
[2] = target: factor XIa catalytic domain K170A (human) (UniProt P03951)
[3] = target: full-length factor XIa with a Gln substitution for Arg-37 (human)
[4] = target: factor XIa catalytic domain K179A (human)
[5] = target: factor XIa catalytic domain K175A (human)
[6] = target: factor XIa catalytic domain R173A (human) (UniProt P03951)
[7] = target: factor XIa catalytic domain R171A (human) (UniProt P03951); remark: listed apart in the source
[8] = target: factor XIa catalytic domain K170A (human) (UniProt P03951); remark: listed apart in the source
[9] = target: full-length factor XIa with a Gln substitution for Arg-37 (human); remark: listed apart in the source
[10] = target: factor XIa catalytic domain K179A (human); remark: listed apart in the source
[11] = target: factor XIa catalytic domain K175A (human); remark: listed apart in the source
[12] = target: full-length factor XIa autolysis loop variant fXIa-144-149A (human)
[13] = target: factor XIa catalytic domain R173A (human) (UniProt P03951); remark: listed apart in the source
[14] = target: factor XIa catalytic domain R171A (human) (UniProt P03951); remark: listed apart in the source
[15] = target: factor XIa catalytic domain K170A (human) (UniProt P03951); remark: listed apart in the source
[16] = target: wild type recombinant factor XIa, full length (human)
[17] = target: factor XIa catalytic domain K179A (human); remark: listed apart in the source
[18] = target: factor XIa catalytic domain K175A (human); remark: listed apart in the source

k2 (second-order inhibition rate constant) [1]: 1200 M⁻¹ s⁻¹ | k2 (second-order inhibition rate constant) [2]: 610 M⁻¹ s⁻¹ | k2 (second-order inhibition rate constant) [3]: 2620 M⁻¹ s⁻¹ | k2 (second-order inhibition rate constant) [4]: 680 M⁻¹ s⁻¹ | k2 (second-order inhibition rate constant) [5]: 550 M⁻¹ s⁻¹ | k2 (second-order inhibition rate constant) [6]: 560 M⁻¹ s⁻¹ | k2 (second-order inhibition rate constant) [7]: 490 M⁻¹ s⁻¹ | k2 (second-order inhibition rate constant) [8]: 230 M⁻¹ s⁻¹ | k2 (second-order inhibition rate constant) [9]: 1550 M⁻¹ s⁻¹ | k2 (second-order inhibition rate constant) [10]: 250 M⁻¹ s⁻¹ | k2 (second-order inhibition rate constant) [11]: 180 M⁻¹ s⁻¹ | k2 (second-order inhibition rate constant), maximal [12]: 200000 M⁻¹ s⁻¹ | k2 (second-order inhibition rate constant) [13]: 210 M⁻¹ s⁻¹ | k2 (second-order inhibition rate constant) [14]: 18000 M⁻¹ s⁻¹ | k2 (second-order inhibition rate constant) [15]: 12000 M⁻¹ s⁻¹ | k2 (second-order inhibition rate constant) [16]: 223000 M⁻¹ s⁻¹ | k2 (second-order inhibition rate constant) [17]: 50000 M⁻¹ s⁻¹ | k2 (second-order inhibition rate constant) [18]: 17000 M⁻¹ s⁻¹
Substance: antithrombin (from UniProt P01008 33-464) (natural protein)
